Reference: patent CN113929781A (MABWELL SHANGHAI BIOTECHNOLOGY CO LTD; JIANGSU MAIWEIKANG …, dated 2022)

Key:
人PD-1-hFc [1] = biological target: T1, 人PD-1-hFc (human, UniProt Q15116 21-167); assay: competition ELISA, PD-1-hFc coated, competitor PD-L1-mFc at 1 μg/mL
T1 construct: range 21-167; also called 重组人PD-1; Lot 20180329; not shown: human Fc (hFc)

人PD-1-hFc [2] = biological target: T1, 人PD-1-hFc; assay: competition ELISA, PD-1-hFc coated, competitor PD-L2-hFc-Biotin at 2 μg/mL

T1 sequence (Q15116 21-167 limits assumed, form in doubt): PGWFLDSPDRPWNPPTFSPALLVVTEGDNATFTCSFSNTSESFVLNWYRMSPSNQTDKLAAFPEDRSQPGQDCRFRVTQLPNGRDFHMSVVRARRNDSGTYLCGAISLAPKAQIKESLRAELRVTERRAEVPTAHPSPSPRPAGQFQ

IC50 (人PD-1-hFc [1]): 1.4 nM
IC50 (人PD-1-hFc [2]): 1.2 nM
B1: h317 (antibody, V domains shown)
VH: EVQLVESGGGLVKPGGSLRLSCAASGFTFSSYDMSWVRQAPGKGLEWVATISGGGSYTYYPDSVKGRFTISRDNAKNSLYLQMNSLRAEDTAVYYCASPDSSGVAYWGQGTLVTVSS
VL: DIVMTQSPLSLPVTPGEPASITCKASQDVETVVAWYLQKPGQSPRLLIYWASTRHTGVPDRFSGSGSGTDFTLKISRVEAEDVGVYYCQQYSRYPWTFGQGTKL
